Tested on: hUBF (RNA polymerase I transcription factor UBF), HeLa (Homo sapiens)
Test: footprint
Conditions: 14 mM MgCl2, 50 mM KCl, pH 7.9, 30 C

Substance | Kd (apparent Kd (half-maximal), cooperative, Hill 2.7) [pM] | Kd (single cis-[Pt(NH3)2]2+ d(GpG) 1,2-intrastrand adduct, central, non-cooperative) [pM]
human rRNA promoter -208 to +78 (EcoRI-BstEII fragment of pSBr208, 286 bp) | 18 | 
G^G-100 (100 bp with single central cisplatin 1,2-d(GpG) intrastrand crosslink) |  | 60
